These results are taken from publication doi:10.1101/2023.02.24.529973 (bioRxiv, 2023).

The data set concerns the molecule itself. Briefly: SEC.

B1: Rv2067c, recombinant tagless protein (enzyme)
chain: TDDHPRADIVSRQYHRWLYPHPIADLEAWTTANWEWFDPVHSHRILWPDREYRPDLDILIAGCGTNQAAIFAFTNRAAKVVAIDISRPALDHQQYLKDKHGLANLELHLLPIEELATLGRDFDLVVSTGVLHHLADPRAGMKELAHCLRRDGVVAAMLYGKYGRIGVELLGSVFRDLGLGQDDASIKLAKEAISLLPTYHPLRNYLTKARDLLSDSALVDTFLHGRQRSYTVEECVDLVTSAGLVFQGWFHKAPYYPHDFFVPNSEFYAAVNTLPEVKAWSVMERLETLNATHLFMACRRDRPKEQYTIDFSTVAALDYVPLMRTRCGVSGTDMFWPGWRMAPSPAQLAFLQQVDGRRTIREIAGCVARTGEPSGGSLADLEEFGRKLFQSLWRLDFVAVALPASG
For the protein B1, the stoichiometry N – broadly, a count of units in the complex or per binding partner – was 2.
